Test results taken from doi:10.1101/2022.10.09.511515, “DNA segment capture by Smc5/6 holo-complexes” (bioRxiv, 2022).

Target: T1, Smc5(G1054C) (S. cerevisiae, UniProt Q08204 1-1093, G1054C)
T1 construct: Smc5, S. cerevisiae; subunit of the Smc5/6 hexamer; Stood in the assay as a subunit of the purified Smc5/6 hexamer (Smc5, Smc6, Nse1-4); also called Smc5 with the engineered cysteine of the Smc5/Nse4 interface
T1 sequence (looked up): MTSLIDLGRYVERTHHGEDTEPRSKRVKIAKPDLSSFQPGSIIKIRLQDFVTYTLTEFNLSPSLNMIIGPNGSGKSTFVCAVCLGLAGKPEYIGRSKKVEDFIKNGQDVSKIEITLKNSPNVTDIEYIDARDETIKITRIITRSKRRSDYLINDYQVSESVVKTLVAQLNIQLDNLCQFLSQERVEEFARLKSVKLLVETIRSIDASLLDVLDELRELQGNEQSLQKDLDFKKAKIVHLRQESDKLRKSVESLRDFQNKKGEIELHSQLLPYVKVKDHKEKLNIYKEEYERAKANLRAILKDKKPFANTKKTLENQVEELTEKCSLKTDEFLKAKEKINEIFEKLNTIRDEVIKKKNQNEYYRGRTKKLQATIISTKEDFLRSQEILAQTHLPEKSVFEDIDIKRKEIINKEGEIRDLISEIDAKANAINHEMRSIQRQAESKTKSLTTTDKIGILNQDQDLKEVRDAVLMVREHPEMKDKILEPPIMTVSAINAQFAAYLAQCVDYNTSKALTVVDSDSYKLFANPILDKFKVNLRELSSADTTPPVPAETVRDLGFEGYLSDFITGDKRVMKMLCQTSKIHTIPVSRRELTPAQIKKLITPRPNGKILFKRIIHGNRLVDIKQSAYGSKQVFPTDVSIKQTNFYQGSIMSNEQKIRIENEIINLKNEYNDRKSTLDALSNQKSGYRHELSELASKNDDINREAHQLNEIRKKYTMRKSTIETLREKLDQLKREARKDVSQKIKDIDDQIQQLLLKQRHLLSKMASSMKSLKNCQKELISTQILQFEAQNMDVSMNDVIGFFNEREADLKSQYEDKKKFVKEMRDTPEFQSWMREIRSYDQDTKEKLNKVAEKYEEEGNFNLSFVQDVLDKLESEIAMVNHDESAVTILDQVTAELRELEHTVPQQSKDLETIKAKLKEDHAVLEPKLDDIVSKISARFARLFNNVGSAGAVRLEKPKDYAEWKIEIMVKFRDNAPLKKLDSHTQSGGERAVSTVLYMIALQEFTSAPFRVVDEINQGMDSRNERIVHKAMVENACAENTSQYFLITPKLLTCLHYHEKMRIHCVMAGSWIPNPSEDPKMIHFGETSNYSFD
Test: cross-linking; as a1 with the Nse5/6 dimer added in 1.25 x molar excess (0.625 uM) to the hexamer; SDS-PAGE, Coomassie
Conditions: both partners purified

binding result: binds
B1: Nse5/6 dimer (complex, S. cerevisiae)
chain 1: MDGALINSVLYVSPRNGAHYFVELTEKHLLAFEMLNSMCLLENYDHVLLFLECQFGKSHNLAVIPFDIILVLFTLSTLSEYYKEPILRANDPYNTSRETLSRRALKLLQKYLAILKEFDSEQYNLYDLELLRCQFFLAIDTLTPKKQKWGFDRFRRTKSESGVTYRQNASVDPELDQAKTFKNPYRSYISCLEQRNTILGNRLLNLKLNEPGEFINMILWTLSNSLQESTPLFLSSHEIWMPLLEILIDLFSCRQDYFIQHEVAQNVSKSLFVQRLSESPLAVFFESLNTRNFANRFSEYVFLNCDYKLPSDNYATPVHPVYNGENTIVDTYIPTIKCSPLYKSQKSLALRRKLIGSCFKLLLRVPDGHRLITPRIVADDVIQGISRTLASFNDILQFKKFFMTENLSQESYFIPLLAEGTLSEILKDTQECVVILTLVENLSDGVSFCNEVIGLVKSKCFAFTEQCSQASYEEAVLNIEKCDVCLLVLLRYLLHLIGTEAILDAKEQLEMLHAIEKNDSGRRQWAKALNLGNDPPLLYPIVSQMFGVHDKSVIIE
chain 2: MGSVNSSPNEEFETVPDSQISGFDSPLIPTSVGSYFRDDDDDEKVHPNFISDPENDSLNSDEEFSSLENSDLNLSGAKAESGDDFDPILKRTIISKRKAPSNNEDEEIVKTPRKLVNYVPLKIFNLGDSFDDTITTTVAKLQDLKKEILDSPRSNKSIVITSNTVAKSELQKSIKFSGSIPEIYLDVVTKETISDKYKDWHFISKNCHYEQLMDLEMKDTAYSFLFGSSRSQGKVPEFVHLKCPSITNLLVLFGVNQEKCNSLKINYEKKENSRYDNLCTIFPVNKMLKFLMYFYSDDDNDDVREFFLKAFICLILDRKVFNAMESDHRLCFKVLELFNEAHFINSYFEIVDKNDFFLHYRLLQIFPHLQSALLRRRFSEKQGRTETIQQNIIKEFNEFFDCKNYKNLLYFILTMYGSKFIPFGPKCQVTEYFKDCILDISNETTNDVEISILKGILNLFSKIR
notes: Nse5, S. cerevisiae; a native cysteine of it cross-links to Smc5(G1054C); Nse6, S. cerevisiae; also called Nse5/6 loader; loader Nse5/6
